Measurements reported in patent US20230295324A1 (published 2023).

Key:
[1] = target: T1, human CD40 on CHO-K1 cells (CHO-K1/hu CD40) (human, UniProt P25942 21-277); experiment: flow cytometry on CHO-K1/hu CD40 cells
T1 construct: whole, on cells
Experimental: (§1) This example is intended to investigate the specificity of in vitro binding of anti-human OX40 HCAb monoclonal antibodies by detecting 3 receptors of the TNF tumor necrosis factor receptor superfamily and ICOS by flow cytometry. The antibody binding assay at the cellular level was performed using a CHO-K1 cell strain overexpressing human OX40 (CHO-K1/hu OX40), a CHO-K1 cell strain overexpressing human CD40 (CHO-K1/hu CD40, Beijing KYinno, #KC-1286), a CHO-K1 cell strain overexpressing human 4-1BB (CHO-K1/hu 4-1BB, Genscript, #M00538) and an HEK293 cell strain overexpressing human ICOS (HEK293T/ICOS, Genscript, #KC-0210). Briefly, these cells were digested and resuspended in F12K or DMEM complete medium, and the cell density was adjusted to 1×10⁶ cells/mL. The cells were seeded in a 96-well V-bottom plate at 100 μL/well, and centrifuged, and then the supernatant was discarded. Then, the test antibodies diluted in a 3-fold gradient were added at 100 μL/well. The cells were incubated at 4° C. for 1 h away from light. Thereafter, the cells in each well were rinsed twice with 100 μL of pre-cooled PBS, and centrifuged at 500 g at 4° C. for 5 min, and then the supernatant was discarded. […] Finally, the cells in each well were resuspended in 200 μL of pre-cooled PBS, and the fluorescence signal values were read using NovoCyte flow cytometer (ACEA Biosciences).

[2] = target: T2, human 4-1BB on CHO-K1 cells (CHO-K1/hu 4-1BB) (human, UniProt Q07011 24-255); experiment: flow cytometry on CHO-K1/hu 4-1BB cells
T2 construct: whole, on cells
T2 sequence (Q07011 24-255): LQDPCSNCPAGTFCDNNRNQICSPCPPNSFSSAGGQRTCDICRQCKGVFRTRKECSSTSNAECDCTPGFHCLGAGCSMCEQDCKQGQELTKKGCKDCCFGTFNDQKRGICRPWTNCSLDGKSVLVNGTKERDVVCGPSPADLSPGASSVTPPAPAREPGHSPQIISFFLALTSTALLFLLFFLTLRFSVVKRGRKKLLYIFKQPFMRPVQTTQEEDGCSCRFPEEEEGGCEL
Experimental: as §1

[3] = target: T3, human OX40 on cells (CHO-K1/hu OX40) (human, UniProt P43489 29-277); experiment: FACS, blocking of biotin-human OX40L on CHO-K1/hu OX40 cells
T3 construct: whole, on cells; Also used here for OX40 on the HEK293/OX40/NF-kb reporter cells and on human T cells in the functional assays; also called CHO-K1/OX40; human OX40 cells
T3 sequence (looked up): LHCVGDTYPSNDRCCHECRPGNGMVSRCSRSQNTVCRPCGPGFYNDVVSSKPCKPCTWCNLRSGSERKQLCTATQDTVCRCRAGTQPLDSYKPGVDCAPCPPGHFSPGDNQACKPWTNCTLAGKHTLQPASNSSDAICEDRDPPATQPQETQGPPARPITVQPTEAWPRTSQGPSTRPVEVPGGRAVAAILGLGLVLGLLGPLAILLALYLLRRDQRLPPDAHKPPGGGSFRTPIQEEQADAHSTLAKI

[4] = target: T4, human OX40 protein (Acro biosystem, #OX0-H5224) (human, UniProt P43489 29-216); experiment: ELISA, coated human OX40 protein
T4 construct: Bought recombinant protein
T4 sequence (looked up): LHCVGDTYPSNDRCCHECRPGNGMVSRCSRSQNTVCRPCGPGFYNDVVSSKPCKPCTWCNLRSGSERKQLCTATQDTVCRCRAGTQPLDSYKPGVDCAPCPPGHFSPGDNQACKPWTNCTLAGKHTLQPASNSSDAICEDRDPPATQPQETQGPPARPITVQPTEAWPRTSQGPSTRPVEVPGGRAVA

[5] = target: T3, human OX40 on cells (CHO-K1/hu OX40); experiment: cell-based or functional assay

T1 sequence (P25942 21-277): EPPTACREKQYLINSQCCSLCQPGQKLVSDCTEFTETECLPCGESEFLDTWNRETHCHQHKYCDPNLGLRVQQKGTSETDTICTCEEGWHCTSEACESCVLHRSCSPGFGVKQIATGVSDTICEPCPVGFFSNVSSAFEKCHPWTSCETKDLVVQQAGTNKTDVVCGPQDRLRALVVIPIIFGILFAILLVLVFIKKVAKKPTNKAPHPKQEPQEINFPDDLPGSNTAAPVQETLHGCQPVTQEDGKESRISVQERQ

B1: PR002067 (antibody, human IgG1, V domains shown)
VH: EVQLLESGGGLVQPGGSLRLSCAASGFTFSSYAMSWVRQAPGKGLEWVSAISGRGGSTFYADSVRGRFTISRDNSKNTLYLQMNSLRAEDTAMYYCVDGTTGTTDVDYWGQGTLVTVSS
notes: no light chain; also called anti-OX40 HCAb antibody
With B1 the binding result [1] was “no binding”, the binding result [2] was “no binding” and the IC50 [3] was 166 nM. The “Maximum inhibition rate (%)” value [3] was 64%, the EC50 [4] was 0.0806 nM and the “Maximum OD” value [4] was 2.38 OD. For the same binder, the “EC50, HEK293/OX40/NF-kb luciferase reporter” value [5] was 5.37 nM and the “Maximum fluorescence signal value, HEK293/OX40/NF-kb luciferase reporter” value [5] was 137000 luminescence.
